These results are taken from US7557190.

By Kd is commonly meant the constant that tells how readily two partners part at equilibrium.

This assay deals with T1, Ep-CAM/Fc (recombinant human) (human, UniProt P16422).
T1 chain: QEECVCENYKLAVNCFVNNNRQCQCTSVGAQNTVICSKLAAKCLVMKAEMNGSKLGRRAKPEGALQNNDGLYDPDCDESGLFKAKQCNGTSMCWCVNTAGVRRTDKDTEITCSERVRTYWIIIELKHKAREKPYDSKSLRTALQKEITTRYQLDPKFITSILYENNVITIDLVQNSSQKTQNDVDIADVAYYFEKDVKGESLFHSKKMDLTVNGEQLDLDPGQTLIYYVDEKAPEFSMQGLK
Nature of the assay: SPR. A general note: SPR reads the build-up and loss of mass on a sensor chip optically.

B1: H3.77/L3 (humanized 17-1A) (antibody, V domains shown)
VH: EVQLVESGGGLVQPGGSLRLSCAASGYSFTNYLIEWVRQAPGQGLEWMGVINPGSGGTNYNPSLKSRVTISADKSISTAYMELSSLRSEDTAVYFCARDGPWFAYWGQGTLVTVSS
VL: NIVMTQSPDSLAVSLGERATLSCRASENVVTYVSWYQQKPGQSPQLLIYGASNRYTGVPDRFTGSGSATDFTLTINSLEAEDAATYYCGQGYSYPYTFGGGTKLEIK
With B1, the Kd was 64.9 nM.
